Data reported in publication PMC6234845 (Biochemistry, 2018).

Tests used:
[1] = target: Src13-GCN4-EGFP / Src13-GCN4-mCH; assay: PIE-FCCS
[2] = target: the molecule itself; assay: PIE-FCCS

Row | Molecule | fc, fraction correlated [1] | fc (mean), fraction correlated [2] | fc (median), fraction correlated [2]
1 | Src13-GCN4-EGFP / Src13-GCN4-mCH | 0.13 | – | –
2 | wild type rod opsin-EGFP / rod opsin-mCherry (receptor, mouse, UniProt P15409 1-348, looked up) MNGTEGPNFYVPFSNVTGVVRSPFEQPQYYLAEPWQFSMLAAYMFLLIVLGFPINFLTLYVTVQHKKLRTPLNYILLNLAVADLFMVFGGFTTTLYTSLHGYFVFGPTGCNLEGFFATLGGEIALWSLVVLAIERYVVVCKPMSNFRFGENHAIMGVVFTWIMALACAAPPLVGWSRYIPEGMQCSCGIDYYTLKPEVNNESFVIYMFVVHFTIPMIVIFFCYGQLVFTVKEAAAQQQESATTQKAEKEVTRMVIIMVIFFLICWLPYASVAFYIFTHQGSNFGPIFMTLPAFFAKSSSIYNPVIYIMLNKQFRNCMLTTLCCGKNPLGDDDASATASKTETSQVAPA | – | 0.114 | 0.107
